The values below come from article PMC9958131 (Nature Communications, 2023).

Substitutions are numbered along the chain they refer to.

For this experiment, the system named is PAD2 and PAD4. The experiment can be described thus: Citrullination site mapping of fibrinogen and vimentin by trypsin digestion and mass spectrometry (protein-level sheet, one search over native, PAD2-cit and PAD4-cit samples). The class given is biochemical, human. The conditions noted are these: modified residues found per protein; Deamidated [R..] = deamidated (citrullinated) arginine positions; trypsin digest, Sequest HT; not split by sample (native, PAD2-citrullinated, PAD4-citrullinated fibrinogen and vimentin). An excerpt:
Description: Raw mass spectrometry data for proteolytic mapping of fibrinogen, vimentin, and hnRNP A2/B1 by cathepsins B, S, and H (sheets 1-6); citrullination site mapping of fibrinogen and vimentin by trypsin digestion (sheets 7-8); and the natural antigen processing assay with native, PAD2-citrullinated (PAD2-cit), and PAD4-citrullinated (PAD4-cit) fibrinogen (sheets 9-11).

B1: P02533 (protein)
chain: MTTCSRQFTSSSSMKGSCGIGGGIGGGSSRISSVLAGGSCRAPSTYGGGLSVSSSRFSSGGACGLGGGYGGGFSSSSSSFGSGFGGGYGGGLGAGLGGGFGGGFAGGDGLLVGSEKVTMQNLNDRLASYLDKVRALEEANADLEVKIRDWYQRQRPAEIKDYSPYFKTIEDLRNKILTATVDNANVLLQIDNARLAADDFRTKYETELNLRMSVEADINGLRRVLDELTLARADLEMQIESLKEELAYLKKNHEEEMNALRGQVGGDVNVEMDAAPGVDLSRILNEMRDQYEKMAEKNRKDAEEWFFTKTEELNREVATNSELVQSGKSEISELRRTMQNLEIELQSQLSMKASLENSLEETKGRYCMQLAQIQEMIGSVEEQLAQLRCEMEQQNQEYKILLDVKTRLEQEIATYRRLLEGEDAHLSSSQFSSGSQSSRDVTSSSRQIRTKVMDVHDGKVVSTHEQVLRTKN
For the molecule B1, the Modifications result is “Deamidated [R125; R194; R282; R336; R439]; Met-loss+Acetyl [N-Term]”.

B2: E7ESP9 (protein)
chain: MSYTLDSLGNPSAYRRVTETRSSFSRVSGSPSSGFRSQSWSRGSPSTVSSSYKRSMLAPRLAYSSAMLSSAESSLDFSQSSSLLNGGSGPGGDYKLSRSNEKEQLQGLNDRFAGYIEKVHYLEQQNKEIEAEIQALRQKQASHAQLGDAYDQEIRELRATLEMVNHEKAQVQLDSDHLEEDIHRLKERFEEEARLRDDTEAAIRALRKDIEEASLVKVELDKKVQSLQDEVAFLRSNHEEEVADLLAQIQASHITVERKDYLKTDISTALKEIRSQLESHSDQNMHQAEEWFKCRYAKLTEAAEQNKEAIRSAKEEIAEYRRQLQSKSIELESVRGTKESLERQLSDIEERHNHDLSSYQDTIQQLENELRGTKWEMARHLREYQDLLNVKMALDIEIAAYRKLLEGEETRFSTFAGSITGPLYTHRPPITISSKIQKPKVEAPKLKVQHKFVEEIIEETKVEDEKSEMEEALTAITEELAVSMKEEKKEAAEEKEEEPE
As to B2, the Modifications result is “Deamidated [R382]”.

B3: P13647 (protein, UniProt P13647 1-590, looked up)
chain: MSRQSSVSFRSGGSRSFSTASAITPSVSRTSFTSVSRSGGGGGGGFGRVSLAGACGVGGYGSRSLYNLGGSKRISISTSGGSFRNRFGAGAGGGYGFGGGAGSGFGFGGGAGGGFGLGGGAGFGGGFGGPGFPVCPPGGIQEVTVNQSLLTPLNLQIDPSIQRVRTEEREQIKTLNNKFASFIDKVRFLEQQNKVLDTKWTLLQEQGTKTVRQNLEPLFEQYINNLRRQLDSIVGERGRLDSELRNMQDLVEDFKNKYEDEINKRTTAENEFVMLKKDVDAAYMNKVELEAKVDALMDEINFMKMFFDAELSQMQTHVSDTSVVLSMDNNRNLDLDSIIAEVKAQYEEIANRSRTEAESWYQTKYEELQQTAGRHGDDLRNTKHEISEMNRMIQRLRAEIDNVKKQCANLQNAIADAEQRGELALKDARNKLAELEEALQKAKQDMARLLREYQELMNTKLALDVEIATYRKLLEGEECRLSGEGVGPVNISVVTSSVSSGYGSGSGYGGGLGGGLGGGLGGGLAGGSSGSYYSSSSGGVGLGGGLSVGGSGFSASSGRGLGVGFGSGGGSSSSVKFVSTTSSSRKSFKS
modifications: full-length
As to B3, the Modifications entry was “Deamidated [R37; R73; R187; R227]”.

B4: P01023 (protein)
chain: MGKNKLLHPSLVLLLLVLLPTDASVSGKPQYMVLVPSLLHTETTEKGCVLLSYLNETVTVSASLESVRGNRSLFTDLEAENDVLHCVAFAVPKSSSNEEVMFLTVQVKGPTQEFKKRTTVMVKNEDSLVFVQTDKSIYKPGQTVKFRVVSMDENFHPLNELIPLVYIQDPKGNRIAQWQSFQLEGGLKQFSFPLSSEPFQGSYKVVVQKKSGGRTEHPFTVEEFVLPKFEVQVTVPKIITILEEEMNVSVCGLYTYGKPVPGHVTVSICRKYSDASDCHGEDSQAFCEKFSGQLNSHGCFYQQVKTKVFQLKRKEYEMKLHTEAQIQEEGTVVELTGRQSSEITRTITKLSFVKVDSHFRQGIPFFGQVRLVDGKGVPIPNKVIFIRGNEANYYSNATTDEHGLVQFSINTTNVMGTSLTVRVNYKDRSPCYGYQWVSEEHEEAHHTAYLVFSPSKSFVHLEPMSHELPCGHTQTVQAHYILNGGTLLGLKKLSFYYLIM
Take B4: the Modifications result was “Deamidated [R645; R704; R715; R719; R1401; R1407]”.

B5: P02538 (protein)
chain: MASTSTTIRSHSSSRRGFSANSARLPGVSRSGFSSVSVSRSRGSGGLGGACGGAGFGSRSLYGLGGSKRISIGGGSCAISGGYGSRAGGSYGFGGAGSGFGFGGGAGIGFGLGGGAGLAGGFGGPGFPVCPPGGIQEVTVNQSLLTPLNLQIDPTIQRVRAEEREQIKTLNNKFASFIDKVRFLEQQNKVLETKWTLLQEQGTKTVRQNLEPLFEQYINNLRRQLDSIVGERGRLDSELRGMQDLVEDFKNKYEDEINKRTAAENEFVTLKKDVDAAYMNKVELQAKADTLTDEINFLRALYDAELSQMQTHISDTSVVLSMDNNRNLDLDSIIAEVKAQYEEIAQRSRAEAESWYQTKYEELQVTAGRHGDDLRNTKQEIAEINRMIQRLRSEIDHVKKQCANLQAAIADAEQRGEMALKDAKNKLEGLEDALQKAKQDLARLLKEYQELMNVKLALDVEIATYRKLLEGEECRLNGEGVGQVNISVVQSTVSSGYGGA
On to B5, for which the Modifications entry is “Deamidated [R182; R222; R326]”.

B6: K7ERE3 (protein)
chain: MSLRLQSSSASYGGGFGGGSCQLGGGRGVSTCSTRFVSGGSAGGYGGGVSCGFGGGAGSGFGGGYGGGLGGGYGGGLGGGFGGGFAGGFVDFGACDGGLLTGNEKITMQNLNDRLASYLEKVRALEEANADLEVKIRDWHLKQSPASPERDYSPYYKTIEELRDKILTATIENNRVILEIDNARLAADDFRLKYENELALRQSVEADINGLRRVLDELTLSKTDLEMQIESLNEELAYMKKNHEEEMKEFSNQVVGQVNVEMDATPGIDLTRVLAEMREQYEAMAERNRRDAEEWFHTKSAELNKEVSTNTAMIQTSKTEITELRRTLQGLEIELQSQLSMKAGLENTVAETECRYALQLQQIQGLISSIEAQLSELRSEMECQNQEYKMLLDIKTRLEQEIATYRSLLEGQDAK
For the molecule B6, the Modifications result was “Deamidated [R27; R212]”.

B7: C9JU00 (protein)
chain: MIDAATLKSRKMLEEIMKYEASILTHDSSIRYLQEIYNSNNQKIVNLKEKVAQLEAQCQEPCKDTVQIHDITGKDCQDIANKGAKQSGLYFIKPLKANQQFLVYCEIDGSGNGWTVFQKRLDG
B7: the Modifications result was “Deamidated [R31]”.

B8: P00488 (protein)
chain: MSETSRTAFGGRRAVPPNNSNAAEDDLPTVELQGVVPRGVNLQEFLNVTSVHLFKERWDTNKVDHHTDKYENNKLIVRRGQSFYVQIDFSRPYDPRRDLFRVEYVIGRYPQENKGTYIPVPIVSELQSGKWGAKIVMREDRSVRLSIQSSPKCIVGKFRMYVAVWTPYGVLRTSRNPETDTYILFNPWCEDDAVYLDNEKEREEYVLNDIGVIFYGEVNDIKTRSWSYGQFEDGILDTCLYVMDRAQMDLSGRGNPIKVSRVGSAMVNAKDDEGVLVGSWDNIYAYGVPPSAWTGSVDILLEYRSSENPVRYGQCWVFAGVFNTFLRCLGIPARIVTNYFSAHDNDANLQMDIFLEEDGNVNSKLTKDSVWNYHCWNEAWMTRPDLPVGFGGWQAVDSTPQENSDGMYRCGPASVQAIKHGHVCFQFDAPFVFAEVNSDLIYITAKKDGTHVVENVDATHIGKLIVTKQIGGDGMMDITDTYKFQEGQEEERLALETALM
In the case of B8, the Modifications result is “Deamidated [R6; R202; R675; R697]; Met-loss+Acetyl [N-Term]”.

B9: Q9Y2J8 (protein)
chain: MLRERTVRLQYGSRVEAVYVLGTYLWTDVYSAAPAGAQTFSLKHSEHVWVEVVRDGEAEEVATNGKQRWLLSPSTTLRVTMSQASTEASSDKVTVNYYDEEGSIPIDQAGLFLTAIEISLDVDADRDGVVEKNNPKKASWTWGPEGQGAILLVNCDRETPWLPKEDCRDEKVYSKEDLKDMSQMILRTKGPDRLPAGYEIVLYISMSDSDKVGVFYVENPFFGQRYIHILGRRKLYHVVKYTGGSAELLFFVEGLCFPDEGFSGLVSIHVSLLEYMAQDIPLTPIFTDTVIFRIAPWIMTPNILPPVSVFVCCMKDNYLFLKEVKNLVEKTNCELKVCFQYLNRGDRWIQDEIEFGYIEAPHKGFPVVLDSPRDGNLKDFPVKELLGPDFGYVTREPLFESVTSLDSFGNLEVSPPVTVNGKTYPLGRILIGSSFPLSGGRRMTKVVRDFLKAQQVQAPVELYSDWLTVGHVDEFMSFVPIPGTKKFLLLMASTSACYKL
As to B9, the Modifications entry was “Deamidated [R5; R8; R54; R68; R78; R157; R187; R193; R225; R232; R344; R347; R373; R428; R441; R442; R546; R552; R580; R582; R652; R653]”.

B10: F5GXS0 (protein)
chain: MRLLWGLIWASSFFTLSLQKPRLLLFSPSVVHLGVPLSVGVQLQDVPRGQVVKGSVFLRNPSRNNVPCSPKVDFTLSSERDFALLSLQVPLKDAKSCGLHQLLRGPEVQLVAHSPWLKDSLSRTTNIQGINLLFSSRRGHLFLQTDQPIYNPGQRVRYRVFALDQKMRPSTDTITVMVENSHGLRVRKKEVYMPSSIFQDDFVIPDISEPGTWKISARFSDGLESNSSTQFEVKKYVLPNFEVKITPGKPYILTVPGHLDEMQLDIQARYIYGKPVQGVAYVRFGLLDEDGKKTFFRGLESQTKLVNGQSHISLSKAEFQDALEKLNMGITDLQGLRLYVAAAIIESPGGEMEEAELTSWYFVSSPFSLDLSKTKRHLVPGAPFLLQALVREMSGSPASGIPVKVSATVSSPGSVPEVQDIQQNTDGSGQVSIPIIIPQTISELQLSVSAGSPHPAIARLTVAAPPSGGPGFLSIERPDSRPPRVGDTLNLNLRAVGSGA
Take B10: the Modifications entry was “Deamidated [R123; R1126]”.

B11: A0A140TA32 (protein)
chain: B10 chain with S347Y
With B11, the Modifications entry is “Deamidated [R123]”.
